Test results published in patent publication US20140274782A1, “AFFINITY REAGENTS AND METHODS FOR DETECTION, PURIFICATION, AND PROTEOMIC ANALYSIS OF METHYLATED PROTEINS” (The Board of Trustees of the Leland Stanford Junior …, priority 2013, published 2014).

Tests used:
[1] = biological target: T1, G9a and GLP (Homo sapiens, UniProt Q96KQ7+Q9H9B1); experiment: Triple SILAC pull-down after UNC0638 treatment of 293T cells, DMSO/UNC0638 ratio of protein captured by 3×MBT; type: cell-based; set-up: endogenous in cells; host or cells: HEK 293T; settings: all values in log base 2; for Relative to UNC0638 UNC Heavy / Relative to UNC0638 UNC Light: SILAC ratio DMSO relative to UNC0638, pull-down with 3xMBT; for Relative to UNC0638 UNC Heavy: UNC0638 in heavy SILAC media; for Relative to UNC0638 UNC Light: UNC0638 in light SILAC media; for Relative to UNC0638 Average: average of UNC Light and UNC Heavy experiments;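 for all read-outs here: mass spectrometry (Q-Exactive) SILAC quantitation, DMSO/UNC0638 ratio computed after subtracting 3×MBTD355N mutant pull-down background, only proteins with at least twofold 3×MBT over mutant signal considered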
T1 sequence (Q96KQ7 2-1210 limits assumed): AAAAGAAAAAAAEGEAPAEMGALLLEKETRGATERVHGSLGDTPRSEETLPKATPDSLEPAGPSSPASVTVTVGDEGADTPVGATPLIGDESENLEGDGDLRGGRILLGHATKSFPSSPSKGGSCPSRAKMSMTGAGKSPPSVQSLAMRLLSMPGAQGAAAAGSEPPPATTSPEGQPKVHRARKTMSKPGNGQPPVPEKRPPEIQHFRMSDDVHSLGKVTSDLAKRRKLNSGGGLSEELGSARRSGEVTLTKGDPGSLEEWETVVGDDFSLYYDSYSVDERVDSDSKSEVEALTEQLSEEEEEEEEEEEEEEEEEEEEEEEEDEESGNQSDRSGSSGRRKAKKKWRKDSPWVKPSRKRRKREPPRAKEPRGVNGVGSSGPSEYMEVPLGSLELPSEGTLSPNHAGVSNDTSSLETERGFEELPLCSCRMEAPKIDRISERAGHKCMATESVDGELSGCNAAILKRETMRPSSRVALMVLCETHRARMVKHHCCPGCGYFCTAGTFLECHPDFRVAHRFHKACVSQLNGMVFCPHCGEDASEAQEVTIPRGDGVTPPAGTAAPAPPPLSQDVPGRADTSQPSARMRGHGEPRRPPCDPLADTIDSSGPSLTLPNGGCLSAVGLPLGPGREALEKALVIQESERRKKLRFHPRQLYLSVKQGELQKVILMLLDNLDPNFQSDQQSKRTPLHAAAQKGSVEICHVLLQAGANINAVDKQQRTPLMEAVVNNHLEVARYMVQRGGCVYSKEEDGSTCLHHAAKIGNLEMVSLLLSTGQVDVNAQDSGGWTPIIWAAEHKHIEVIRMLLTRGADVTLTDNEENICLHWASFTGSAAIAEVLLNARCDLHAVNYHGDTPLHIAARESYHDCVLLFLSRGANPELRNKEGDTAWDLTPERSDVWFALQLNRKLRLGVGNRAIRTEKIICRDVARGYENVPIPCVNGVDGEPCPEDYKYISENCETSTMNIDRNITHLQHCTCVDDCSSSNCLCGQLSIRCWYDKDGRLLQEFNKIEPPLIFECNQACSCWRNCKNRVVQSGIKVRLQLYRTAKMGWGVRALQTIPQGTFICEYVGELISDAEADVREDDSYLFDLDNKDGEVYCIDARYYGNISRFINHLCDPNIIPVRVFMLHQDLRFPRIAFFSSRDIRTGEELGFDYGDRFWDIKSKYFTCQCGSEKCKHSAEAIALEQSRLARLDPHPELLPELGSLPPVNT
T1 sequence (Q9H9B1 2-1298 limits assumed): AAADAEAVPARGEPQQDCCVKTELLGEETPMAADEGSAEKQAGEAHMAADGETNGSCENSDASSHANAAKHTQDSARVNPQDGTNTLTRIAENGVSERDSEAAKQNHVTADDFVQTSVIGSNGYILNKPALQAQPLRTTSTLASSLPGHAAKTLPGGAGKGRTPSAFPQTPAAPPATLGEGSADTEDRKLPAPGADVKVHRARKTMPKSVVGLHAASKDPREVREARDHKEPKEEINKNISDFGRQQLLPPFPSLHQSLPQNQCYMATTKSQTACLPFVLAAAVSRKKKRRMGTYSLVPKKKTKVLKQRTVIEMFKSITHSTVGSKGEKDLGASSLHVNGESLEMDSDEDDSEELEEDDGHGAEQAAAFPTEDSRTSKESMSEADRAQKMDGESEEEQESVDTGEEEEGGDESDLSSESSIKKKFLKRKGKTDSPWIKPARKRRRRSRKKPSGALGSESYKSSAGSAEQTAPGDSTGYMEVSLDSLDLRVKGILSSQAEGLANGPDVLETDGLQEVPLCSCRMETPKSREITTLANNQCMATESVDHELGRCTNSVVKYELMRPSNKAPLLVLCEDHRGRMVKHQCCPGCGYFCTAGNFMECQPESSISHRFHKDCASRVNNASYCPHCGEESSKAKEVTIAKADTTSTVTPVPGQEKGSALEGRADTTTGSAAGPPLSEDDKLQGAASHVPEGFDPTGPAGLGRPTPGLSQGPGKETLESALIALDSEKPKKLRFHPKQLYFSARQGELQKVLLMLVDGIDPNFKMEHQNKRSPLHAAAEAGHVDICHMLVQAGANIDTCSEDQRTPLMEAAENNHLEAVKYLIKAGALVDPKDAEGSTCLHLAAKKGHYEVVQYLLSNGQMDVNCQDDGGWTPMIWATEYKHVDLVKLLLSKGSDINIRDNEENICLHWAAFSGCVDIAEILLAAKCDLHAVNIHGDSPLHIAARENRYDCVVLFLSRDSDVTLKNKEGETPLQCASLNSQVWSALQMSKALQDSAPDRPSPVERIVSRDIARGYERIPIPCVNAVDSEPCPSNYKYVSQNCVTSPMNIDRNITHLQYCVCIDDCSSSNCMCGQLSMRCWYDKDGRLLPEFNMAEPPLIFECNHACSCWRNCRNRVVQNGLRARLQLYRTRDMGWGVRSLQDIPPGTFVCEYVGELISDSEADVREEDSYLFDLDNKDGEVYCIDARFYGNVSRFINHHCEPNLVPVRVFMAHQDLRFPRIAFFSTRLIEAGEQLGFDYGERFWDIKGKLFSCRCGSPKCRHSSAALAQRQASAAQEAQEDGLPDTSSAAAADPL

[2] = test system: 3×MBT domain of L3MBTL1; experiment: Triple SILAC pull-down, 3xMBT/3xMBTD355N ratio (cytoplasmic, nuclear and chromatin fractions of 293T cells); type: binding, human; settings: SILAC ratio 3xMBT vs 3xMBTD355N pull-down, 293T cells, all values in log base 2; for 3xMBT/D355N UNC Heavy: experiment with UNC0638 in heavy SILAC media; for 3xMBT/D355N UNC Light: experiment with UNC0638 in light SILAC media;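 for all read-outs here: proteins quantified with MaxQuant, requiring at least two unique peptides and quantification in both label directions, normalized to the mean of proteins from a digested loading control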

B1: NCBP1 (protein, UniProt Q09161 1-790, looked up)
Nuclear cap-binding protein …: MSRRRHSDENDGGQPHKRRKTSDANETEDHLESLICKVGEKSACSLESNLEGLAGVLEADLPNYKSKILRLLCTVARLLPEKLTIYTTLVGLLNARNYNFGGEFVEAMIRQLKESLKANNYNEAVYLVRFLSDLVNCHVIAAPSMVAMFENFVSVTQEEDVPQVRRDWYVYAFLSSLPWVGKELYEKKDAEMDRIFANTESYLKRRQKTHVPMLQVWTADKPHPQEEYLDCLWAQIQKLKKDRWQERHILRPYLAFDSILCEALQHNLPPFTPPPHTEDSVYPMPRVIFRMFDYTDDPEGPVMPGSHSVERFVIEENLHCIIKSHWKERKTCAAQLVSYPGKNKIPLNYHIVEVIFAELFQLPAPPHIDVMYTTLLIELCKLQPGSLPQVLAQATEMLYMRLDTMNTTCVDRFINWFSHHLSNFQFRWSWEDWSDCLSQDPESPKPKFVREVLEKCMRLSYHQRILDIVPPTFSALCPANPTCIYKYGDESSNSLPGHSVALCLAVAFKSKATNDEIFSILKDVPNPNQDDDDDEGFSFNPLKIEVFVQTLLHLAAKSFSHSFSALAKFHEVFKTLAESDEGKLHVLRVMFEVWRNHPQMIAVLVDKMIRTQIVDCAAVANWIFSSELSRDFTRLFVWEILHSTIRKMNKHVLKIQKELEEAKEKLARQHKRRSDDDDRSSDRKDGVLEEQIERLQEKVESAQSEQKNLFLVIFQRFIMILTEHLVRCETDGTSVLTPWYKNCIERLQQIFLQHHQIIQQYMVTLENLLFTAELDPHILAVFQQFCALQA
Relative to UNC0638 UNC Heavy [1]: −0.32 log base 2 | Relative to UNC0638 UNC Light [1]: 0.11 log base 2 | Relative to UNC0638 Average [1]: −0.11 log base 2 | 3xMBT/D355N UNC Heavy [2]: 1.27 log base 2 | 3xMBT/D355N UNC Light [2]: 2.23 log base 2

B2: BAZ1B (protein, UniProt Q9UIG0 1-1483, looked up)
Tyrosine-protein kinase BAZ1B: MAPLLGRKPFPLVKPLPGEEPLFTIPHTQEAFRTREEYEARLERYSERIWTCKSTGSSQLTHKEAWEEEQEVAELLKEEFPAWYEKLVLEMVHHNTASLEKLVDTAWLEIMTKYAVGEECDFEVGKEKMLKVKIVKIHPLEKVDEEATEKKSDGACDSPSSDKENSSQIAQDHQKKETVVKEDEGRRESINDRARRSPRKLPTSLKKGERKWAPPKFLPHKYDVKLQNEDKIISNVPADSLIRTERPPNKEIVRYFIRHNALRAGTGENAPWVVEDELVKKYSLPSKFSDFLLDPYKYMTLNPSTKRKNTGSPDRKPSKKSKTDNSSLSSPLNPKLWCHVHLKKSLSGSPLKVKNSKNSKSPEEHLEEMMKMMSPNKLHTNFHIPKKGPPAKKPGKHSDKPLKAKGRSKGILNGQKSTGNSKSPKKGLKTPKTKMKQMTLLDMAKGTQKMTRAPRNSGGTPRTSSKPHKHLPPAALHLIAYYKENKDREDKRSALSCVISKTARLLSSEDRARLPEELRSLVQKRYELLEHKKRWASMSEEQRKEYLKKKREELKKKLKEKAKERREKEMLERLEKQKRYEDQELTGKNLPAFRLVDTPEGLPNTLFGDVAMVVEFLSCYSGLLLPDAQYPITAVSLMEALSADKGGFLYLNRVLVILLQTLLQDEIAEDYGELGMKLSEIPLTLHSVSELVRLCLRRSDVQEESEGSDTDDNKDSAAFEDNEVQDEFLEKLETSEFFELTSEEKLQILTALCHRILMTYSVQDHMETRQQMSAELWKERLAVLKEENDKKRAEKQKRKEMEAKNKENGKVENGLGKTDRKKEIVKFEPQVDTEAEDMISAVKSRRLLAIQAKKEREIQEREMKVKLERQAEEERIRKHKAAAEKAFQEGIAKAKLVMRRTPIGTDRNHNRYWLFSDEVPGLFIEKGWVHDSIDYRFNHHCKDHTVSGDEDYCPRSKKANLGKNASMNTQHGTATEVAVETTTPKQGQNLWFLCDSQKELDELLNCLHPQGIRESQLKERLEKRYQDIIHSIHLARKPNLGLKSCDGNQELLNFLRSDLIEVATRLQKGGLGYVEETSEFEARVISLEKLKDFGECVIALQASVIKKFLQGFMAPKQKRRKLQSEDSAKTEEVDEEKKMVEEAKVASALEKWKTAIREAQTFSRMHVLLGMLDACIKWDMSAENARCKVCRKKGEDDKLILCDECNKAFHLFCLRPALYEVPDGEWQCPACQPATARRNSRGRNYTEESASEDSEDDESDEEEEEEEEEEEEEDYEVAGLRLRPRKTIRGKHSVIPPAARSGRRPGKKPHSTRRSQPKAPPVDDAEVDELVLQTKRSSRRQSLELQKCEEILHKIVKYRFSWPFREPVTRDEAEDYYDVITHPMDFQTVQNKCSCGSYRSVQEFLTDMKQVFTNAEVYNCRGSHVLSCMVKTEQCLVALLHKHLPGHPYVRRKRKKFPDRLAEDEGDSEPEAVGQSRGRRQKK
Relative to UNC0638 UNC Heavy [1]: 0.14 log base 2 | Relative to UNC0638 UNC Light [1]: −0.38 log base 2 | Relative to UNC0638 Average [1]: −0.12 log base 2 | 3xMBT/D355N UNC Heavy [2]: 1.37 log base 2 | 3xMBT/D355N UNC Light [2]: 0.19 log base 2

B3: SHKBP1 (protein, UniProt Q8TBC3 2-707, looked up)
SH3KBP1-binding protein 1: AAAATAAEGVPSRGPPGEVIHLNVGGKRFSTSRQTLTWIPDSFFSSLLSGRISTLKDETGAIFIDRDPTVFAPILNFLRTKELDPRGVHGSSLLHEAQFYGLTPLVRRLQLREELDRSSCGNVLFNGYLPPPVFPVKRRNRHSLVGPQQLGGRPAPVRRSNTMPPNLGNAGLLGRMLDEKTPPSPSGQPEEPGMVRLVCGHHNWIAVAYTQFLVCYRLKEASGWQLVFSSPRLDWPIERLALTARVHGGALGEHDKMVAAATGSEILLWALQAEGGGSEIGVFHLGVPVEALFFVGNQLIATSHTGRIGVWNAVTKHWQVQEVQPITSYDAAGSFLLLGCNNGSIYYVDVQKFPLRMKDNDLLVSELYRDPAEDGVTALSVYLTPKTSDSGNWIEIAYGTSSGGVRVIVQHPETVGSGPQLFQTFTVHRSPVTKIMLSEKHLISVCADNNHVRTWSVTRFRGMISTQPGSTPLASFKILALESADGHGGCSAGNDIGPYGERDDQQVFIQKVVPSASQLFVRLSSTGQRVCSVRSVDGSPTTAFTVLECEGSRRLGSRPRRYLLTGQANGSLAMWDLTTAMDGLGQAPAGGLTEQELMEQLEHCELAPPAPSAPSWGCLPSPSPRISLTSLHSASSNTSLSGHRGSPSPPQAEARRRGGGSFVERCQELVRSGPDLRRPPTPAPWPSSGLGTPLTPPKMKLNETSF
Relative to UNC0638 UNC Heavy [1]: 0.71 log base 2 | Relative to UNC0638 UNC Light [1]: −0.94 log base 2 | Relative to UNC0638 Average [1]: −0.12 log base 2 | 3xMBT/D355N UNC Heavy [2]: 2.90 log base 2 | 3xMBT/D355N UNC Light [2]: 2.73 log base 2
